The source of these data is article PMC5852081, “The preprophase band-associated kinesin-14 OsKCH2 is a processive minus-end-directed microtubule motor” (Nature Communications, 2018).

As usually defined, the stoichiometry N is the number of molecules, sites or subunits per partner or assembly.

Series [1] concerns the target GFP-OsKCH2(289–767)^T (not stated | O. sativa). Nature of the series: single-molecule photobleaching (TIRF microscopy); GFP-tagged motors bound to surface-immobilized microtubules in the single-molecule motility buffer without ATP, room temperature; photobleaching steps counted.
The target of series [2] is GFP-OsKCH2(289–767) (O. sativa). Kind of series: sucrose gradient centrifugation; 5–20% sucrose gradient in BRB80 with 25 mM KCl, 150,000 x g, 4 °C, 18 h; fractions by SDS-PAGE; standards CA, BSA, AD, amylase, apoferritin.
Series [3] shares this target. Kind of series: single-molecule photobleaching (TIRF microscopy); GFP-tagged motors bound to surface-immobilized microtubules in the single-molecule motility buffer without ATP, room temperature; photobleaching steps counted.
For series [4], the target named is GFP-OsKCH2(289–720) (O. sativa). Kind of series: sucrose gradient centrifugation; 5–20% sucrose gradient in BRB80 with 25 mM KCl, 150,000 x g, 4 °C, 18 h; fractions by SDS-PAGE; standards CA, BSA, AD, amylase, apoferritin.
Series [5] concerns the target GFP-OsKCH1/KCH2 (O. sativa) (UniProt Q0IMS9). Nature of the series: single-molecule photobleaching (TIRF microscopy); GFP-tagged motors bound to surface-immobilized microtubules in the single-molecule motility buffer without ATP, room temperature; photobleaching steps counted.
Series [6] deals with the molecule itself. Kind of series: not stated; oligomeric state of GFP-OsKCH1(292–744), Supplementary Fig. 5d, e; legend not shown.

“GFP-OsKCH2(289–767)^T (domain or fragment)” displayed a stoichiometry N in series [1] of 4. As to “GFP-OsKCH2(289–767) (domain or fragment)”, the stoichiometry N in series [2] and in series [3] was 2 each time. On to “GFP-OsKCH2(289–720) (domain or fragment)”, for which the stoichiometry N in series [4] is 2.

On to “GFP-OsKCH1/KCH2 (from UniProt Q0IMS9 292-705) (domain or fragment)”, for which the stoichiometry N in series [5] turned out to be 2.

B1: GFP-OsKCH1(292–744) (domain or fragment, O. sativa, UniProt Q0IMS9 292-744, looked up)
chain: GEVKQFQLEAQTNFDVQQKQIQELKGALSFVKSGMEQLRLQYSEEFAKLGKHFYTLSNAASSYHKVLEENRKLYNQIQDLKGNIRVYCRVRPFLPGHRSLSSSVADTEERTITIITPTKYGKDGCKSFSFNRVFGPASTQEEVFSDMQPLIRSVLDGFNVCIFAYGQTGSGKTFTMSGPKVLTEESLGVNYRALNDLFNIKAQRKGTIDYEISVQMIEIYNEQVRDLLQDGGNRRLEIRNTPQKGLAVPDASIVPVTSTADVVELMNQGQKNRAVGSTAINDRSSRSHSCLSVHVQGKYLTSGAMLRGCMHLVDLAGSERVDKSEVVGDRLKEAQYINKSLSALGDVIASLAQKNSHVPYRNSKLTQLLQDSLGGQAKTLMFVHVSPELDAVGETISTLKFAERVASVELGAAKANKEGSEVRELKEQIATLKAALAKKEGEPENIQSTQSSP
notes: codon-optimized synthetic cDNA; source: E. coli BL21 Rosetta (DE3), purified (Talon beads); not shown: GFP, N-terminal, kept
In the case of B1, in series [6], the “stoichiometry N” value came out at 2.
